Measurements as given in patent US20250154235A1 (NEURIMMUNE, published 2025).
One block for each binder: values may come before it. Ends that are not written are not given here.

How the values were obtained:
[1] = target: T1, bovine serum albumin (BSA) (bovine, UniProt P02769 25-607); assay: direct ELISA, BSA coated at 10 ug/ml
T1 construct: Control antigen in the ELISA
Protocol: (§1) The antibody capacity to bind TTR and/or misfolded, misassembled and/or aggregated forms of TTR was evaluated by means of direct ELISA assays at varying antibody concentrations. This allows to determinate for each antibody its half maximal effective concentration (EC50) in this assay, which is a commonly used proxy for the antibody binding affinity, see FIG. 2A-2C. […] Antibodies against TTR were diluted in PBS at 11 different concentrations ranging from 4 to 400 nM, and incubated in the ELISA plates overnight at 4° C. After 3 washes with PBS-T, ELISA plates were incubated with a HRP-coupled, human IgG-specific secondary antibody for 1 h at RT (1/4000 dilution). After 3 washes with PBS-T, the ELISA reactions were developed with TMB for exactly 10 min at RT and quantified by measuring the optical density at 450 nm (OD450 nm).
(§2) Subsequently, the antibody's EC50s were determined by fitting the data with a non-linear regression using the least square method in order to estimate the antibody binding affinity under these conditions.

[2] = target: misfolded-aggregated recombinant V30M-TTR (human, UniProt P02766 21-147); assay: direct ELISA, misfolded-aggregated recombinant V30M-TTR coated at 10 ug/ml
Protocol: as §1, §2

[3] = target: T2, misfolded-aggregated human wild-type TTR (human, UniProt P02766 21-147); assay: direct ELISA, misfolded-aggregated human wild-type TTR coated at 10 ug/ml
Protocol: as §1, §2

[4] = target: T3, TTR 15-mer peptide GLTTEEEFVEGIYKV (human, also: covalently bound to a membrane); assay: pepscan membrane of 15-mer TTR peptides (peptides 15 and 16)
T3 peptide: GLTTEEEFVEGIYKV
Protocol: (§3) Additional peptides including selected mutations were also plotted on the membrane. The membrane was blocked in Roti blocking buffer overnight at 4° C., incubated first with the anti-TTR antibody diluted in blocking buffer for 2 h at RT, then with an HRP-coupled anti human IgG antibody for 45 min at RT (dilution 1/20000 in TBS). The reaction was developed with luminol and imaged by luminescence.

[5] = target: T4, TTR 15-mer peptide EEEFVEGIYKVEIDT (human, also: covalently bound to a membrane); assay: as above
T4 peptide: EEEFVEGIYKVEIDT
Protocol: as §3

[6] = target: T2, misfolded-aggregated human wild-type TTR; assay: SPR (ProteOn XPR36), antibody captured by anti-human IgG-Fc, TTR in solution 3.2-316 nM, Langmuir 1:1 fit
Protocol: (§4) SPR analysis was performed on a BioRad ProteOn XPR36 fitted with a GLM sensor chip. An anti-human antibody directed against the Fc gamma domain was covalently coupled to the detection surface and saturated with the antibody under investigation. […] The antibody-antigen association was analyzed during 180 s and the dissociation during 600 s. A Langmuir binding model (simple 1:1 association) was used to fit the data and derive the association (ka) and dissociation (kd) constants, and the affinity (KD).
(§5) An anti-human IgG-Fcγ antibody was covalently coated on the detection surfaces, and used to capture the human TTR-specific antibodies.

native TTR-L55P = native TTR-L55P (human, UniProt P02766 21-147); assay: as above
Protocol: as §4, §5

native TTR-V30M = native TTR-V30M (human, UniProt P02766 21-147); assay: as above
Protocol: as §4, §5

[7] = target: mouse TTR protein contained in wild-type mouse liver extract (mouse, UniProt P07309 21-147); assay: western blot, wild-type mouse liver extract 10 ug total protein
Protocol: FIGS. 4A-4D: Specificity for aggregated TTR on western blot. [0047] […] To prevent dissociation of the high molecular weight aggregates, the aggregated TTR sample was crosslinked with glutaraldehyde (1%, 5 min) prior to loading on the gel.
The binding specificity and selectivity of anti-TTR antibodies was evaluated by means of western blot, see FIG. 4A-4D. In brief, human wild-type TTR protein (300 ng) in native or misfolded-aggregated conformations, and wild-type mouse liver extract (10 μg total protein) were loaded on a SDS-PAGE gel and transferred onto a nitrocellulose membrane using a semi-dry transfer system. […] After 4 washes with PBS-T for 5 min at RT, the membrane was incubated with the appropriate secondary antibody (HRP-coupled; 1/10000 dilution in blocking buffer) for 1 h at RT. After 3 washes with PBS-T and a final one in PBS, the membrane was developed with luminol and the signal intensity quantified by measuring luminescence. Shortly before use, the misfolded-aggregated TTR sample was submitted to crosslinking with glutaraldehyde (1%, 5 min, 37° C.) to prevent the dissociation of TTR aggregates during the preparation process for SDS-PAGE. In contrast, the native TTR sample was not crosslinked before use, such that the TTR homotetramer (which is the native TTR conformation under physiological conditions) almost entirely dissociated into monomers and dimers.

[8] = target: T5, TTR 15-mer peptide WEPFASGKTSESGEL (human, also: covalently bound to a membrane); assay: pepscan membrane of 15-mer TTR peptides (peptides 9, 10 and 11)
T5 peptide: WEPFASGKTSESGEL
Protocol: as §3

[9] = target: T6, TTR 15-mer peptide FRKAADDTWEPFASG (human, also: covalently bound to a membrane); assay: as above
T6 peptide: FRKAADDTWEPFASG
Protocol: as §3

[10] = target: T7, TTR 15-mer peptide ADDTWEPFASGKTSE (human, also: covalently bound to a membrane); assay: as above
T7 peptide: ADDTWEPFASGKTSE
Protocol: as §3

[11] = target: T8, TTR-E42G peptide sequence WGPFA (41-45) (human); assay: pepscan membrane, mutant peptide
T8 construct: Present in a mutant 15-mer spot of the pepscan membrane
T8 peptide: WGPFA
Protocol: as §3

[12] = target: T1, bovine serum albumin (BSA); assay: dot blot on nitrocellulose, NI-301.mur35G11 10 nM, anti-mouse IgG2a-HRP detection
Protocol: FIGS. 6A-6C: Absence of binding to human plasma TTR on dot blot. [0051] […] [0052] Samples 1-6:150 ng of 1) aggregated wt-TTR, 2) native wt-TTR, 3) BSA, 4) native V30M-TTR, 5) native L55P-TTR and 6) native Y78F-TTR. [0053] Samples 7-18:2 μl of plasma collected from 7-10) controls (n=4), 11-14) asymptomatic mutation carriers (n=4) and 15-18) FAP patients (n=4).

[13] = target: T9, TTR 15-mer peptide TSESGELHGLTTEEE (human, also: covalently bound to a membrane); assay: pepscan membrane of 15-mer TTR peptides (peptides 13 and 14)
T9 peptide: TSESGELHGLTTEEE
Protocol: as §3

[14] = target: T10, TTR 15-mer peptide GELHGLTTEEEFVEG (human, also: covalently bound to a membrane); assay: as above
T10 peptide: GELHGLTTEEEFVEG
Protocol: as §3

T1 sequence (P02769 25-607 limits assumed): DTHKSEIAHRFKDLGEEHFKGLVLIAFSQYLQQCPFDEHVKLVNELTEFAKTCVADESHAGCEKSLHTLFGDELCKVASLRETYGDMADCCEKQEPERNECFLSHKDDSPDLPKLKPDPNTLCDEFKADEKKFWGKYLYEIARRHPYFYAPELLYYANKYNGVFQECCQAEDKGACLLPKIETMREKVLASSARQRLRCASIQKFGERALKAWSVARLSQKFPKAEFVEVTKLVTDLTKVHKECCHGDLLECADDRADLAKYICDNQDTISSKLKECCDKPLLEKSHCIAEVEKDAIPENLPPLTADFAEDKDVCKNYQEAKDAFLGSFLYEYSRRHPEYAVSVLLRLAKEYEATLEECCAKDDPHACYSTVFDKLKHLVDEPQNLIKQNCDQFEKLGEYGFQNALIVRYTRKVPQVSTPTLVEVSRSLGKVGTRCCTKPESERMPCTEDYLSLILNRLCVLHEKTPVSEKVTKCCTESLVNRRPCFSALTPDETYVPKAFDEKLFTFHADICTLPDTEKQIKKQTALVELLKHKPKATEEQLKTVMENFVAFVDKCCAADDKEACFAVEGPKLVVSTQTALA

- binding result [1]: no binding (tested: up to 400 nM)
- EC50 [2]: 15.5 nM
- EC50 [3]: 3 nM
- binding result [4]: binds
- binding result [5]: binds
- Kd [6]: 3.5 nM
- koff [6]: 0.00034 s⁻¹
- kon [6]: 97000 M⁻¹ s⁻¹
- Kd (native TTR-L55P): 3.1 nM
- koff (native TTR-L55P): 0.00015 s⁻¹
- kon (native TTR-L55P): 51000 M⁻¹ s⁻¹
- Kd (native TTR-V30M): 16 nM
- koff (native TTR-V30M): 0.00022 s⁻¹
- kon (native TTR-V30M): 13000 M⁻¹ s⁻¹
- binding result [7]: no binding (tested: 50 nM)
B1: NI-301.59F1 (antibody, V domains shown)
VH: EVQLVESGGGLVQPGGSLRLSCVASGFTFSNYWMSWVRQAPGKGLEWVANINQDSEKYYVDSVKGRFAISRDNSKNSLYLQMNSLRVEDTGVYYCARDRYCSGGRCSRGNNWFDPWGQGTLVTVSS
VL: not shown

- binding result [8]: binds
- binding result [9]: binds
- binding result [10]: binds
- binding result [1]: no binding (tested: up to 400 nM)
- binding result [7]: no binding (tested: 50 nM)
- binding result [11]: no binding (tested: 50 nM)
B2: NI-301.37F1 (antibody, V domains shown)
VH: QVQLQESGPGLVKPSETLSLTCSVSGGSIISRSSYWGWIRQPPGKGLEWIGGIYHSGNTYDNPSLKSRLTMSVDTSKNQFSLNLRSVTAADTAVYYCARIVPGGDAFDIWGQGTMVTVSS
VL: DIQMTQSPSSLSASVGDRVTIACRASQSVGTYLNWYQQKRGKAPKLLIFAASSLQSGVPSRFSGSGSGTDFTLTISSLQPEDFATYYCQQSYSSPPTFGQGTKVEIK

- binding result [12]: no binding (tested: 10 nM)
B3: mouse chimeric antibody NI-301.mur35G11 (antibody, V domains shown)
VH: EVQLVESGGGLVQPGGSLRLSCVASGFTFSSYAMSWVRQVPGKGLEWVSSISGSGDTTKYTDSVKGRFTISRDNSKNTVFLQMSSLRAEDTALYYCVKDGSGRIDPFALWGQGTMVTVSS
VL: EIVMTQSPLSLPVTLGQPASISCRSSRSLVYSDGNIYLNWFQQRPGQSPRRLIYKVSNRDSGVPDRFSGSGSDTDFTLRISRVEAEDVGVYYCMQGTHWPRTFGQGTKVEIK
notes: detected with anti-mouse IgG2a secondary antibody; also called murine chimeric anti-TTR antibody

- binding result [1]: no binding (tested: up to 400 nM)
- binding result [13]: binds
- binding result [14]: binds
- binding result [7]: no binding (tested: 50 nM)
B4: NI-301.35G11 (antibody, V domains shown)
VH: EVQLVESGGGLVQPGGSLRLSCVASGFTFSSYAMSWVRQVPGKGLEWVSSISGSGDTTKYTDSVKGRFTISRDNSKNTVFLQMSSLRAEDTALYYCVKDGSGRIDPFALWGQGTMVTVSS
VL: EIVMTQSPLSLPVTLGQPASISCRSSRSLVYSDGNIYLNWFQQRPGQSPRRLIYKVSNRDSGVPDRFSGSGSDTDFTLRISRVEAEDVGVYYCMQGTHWPRTFGQGTKVEIK
notes: also called NI.35G11
